Laboratory results from publication PMC4200520.
pKd: −log10 of the molar value.

Target: XMAP-Ct, C-terminal coiled-coil fragment of XMAP215 (Xenopus) (UniProt Q9PT63)
Assay: SPR
Settings: domain or fragment

TD5, TACC domain fragment of XTACC3 with a deletion of helix α1, sequence (Q9PTG8 whole entry, stated change not applied, the tested form may be a part): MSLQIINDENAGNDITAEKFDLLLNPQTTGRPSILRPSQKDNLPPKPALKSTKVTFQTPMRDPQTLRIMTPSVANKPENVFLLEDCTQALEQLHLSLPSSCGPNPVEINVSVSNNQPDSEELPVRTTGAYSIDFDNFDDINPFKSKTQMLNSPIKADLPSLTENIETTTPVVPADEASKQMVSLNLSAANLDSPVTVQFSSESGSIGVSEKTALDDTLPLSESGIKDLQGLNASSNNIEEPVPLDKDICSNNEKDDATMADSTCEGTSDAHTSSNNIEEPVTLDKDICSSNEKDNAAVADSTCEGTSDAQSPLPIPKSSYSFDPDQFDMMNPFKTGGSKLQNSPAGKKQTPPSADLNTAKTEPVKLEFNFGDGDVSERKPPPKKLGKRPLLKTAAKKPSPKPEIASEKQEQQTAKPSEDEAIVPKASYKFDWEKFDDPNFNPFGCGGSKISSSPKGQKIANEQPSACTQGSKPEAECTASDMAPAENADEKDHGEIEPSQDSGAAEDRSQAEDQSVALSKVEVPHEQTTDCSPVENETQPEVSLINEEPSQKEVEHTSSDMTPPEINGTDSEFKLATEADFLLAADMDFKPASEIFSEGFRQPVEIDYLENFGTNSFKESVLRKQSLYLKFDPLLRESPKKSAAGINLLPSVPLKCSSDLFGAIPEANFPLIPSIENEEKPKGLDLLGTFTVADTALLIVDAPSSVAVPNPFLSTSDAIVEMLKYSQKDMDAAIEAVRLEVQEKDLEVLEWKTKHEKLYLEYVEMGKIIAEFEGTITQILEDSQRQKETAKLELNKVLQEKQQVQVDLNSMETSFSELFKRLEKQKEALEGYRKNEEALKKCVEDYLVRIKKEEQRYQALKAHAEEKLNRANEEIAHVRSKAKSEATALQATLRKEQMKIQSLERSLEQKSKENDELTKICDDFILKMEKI
XMAP-Ct, C-terminal coiled-coil fragment of XMAP215 (Xenopus), sequence (Q9PT63 2002-2065): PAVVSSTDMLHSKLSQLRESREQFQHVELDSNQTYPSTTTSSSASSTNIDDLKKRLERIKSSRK

TD5, TACC domain fragment of XTACC3 with a deletion of helix α1
pKd: 5.37
